Assay results taken from IntAct's records for PubMed 31515488.

B1: Germ cell-less protein-like 1 (Homo sapiens), Q96IK5 (parent)
chain: MGSLSSRVLRQPRPALAQQAQGARAGGSARRPDTGDDAAGHGFCYCAGSHKRKRSSGSFCYCHPDSETDEDEEEGDEQQRLLNTPRRKKLKSTSKYIYQTLFLNGENSDIKICALGEEWSLHKIYLCQSGYFSSMFSGSWKESSMNIIELEIPDQNIDVEALQVAFGSLYRDDVLIKPSRVVAILAAACLLQLDGLIQQCGETMKETVNVKTVCGYYTSAGTYGLDSVKKKCLEWLLNNLMTHQNVELFKELSINVMKQLIGSSNLFVMQVEMDIYTALKKWMFLQLVPSWNGSLKQLLTETDVWFSKQRKDFEGMAFLETEQGKPFVSVFRHLRLQYIISDLASARIIEQDAVVPSEWLSSVYKQQWFAMLRAEQDSEVGPQEINKEELEGNSMRCGRKLAKDGEYCWRWTGFNFGFDLLVTYTNRYIIFKRNTLNQPCSGSVSLQPRRSIAFRLRLASFDSSGKLICSRTTGYQILTLEKDQEQVVMNLDSRLLIFPLYICCNFLYISPEKKN
partner: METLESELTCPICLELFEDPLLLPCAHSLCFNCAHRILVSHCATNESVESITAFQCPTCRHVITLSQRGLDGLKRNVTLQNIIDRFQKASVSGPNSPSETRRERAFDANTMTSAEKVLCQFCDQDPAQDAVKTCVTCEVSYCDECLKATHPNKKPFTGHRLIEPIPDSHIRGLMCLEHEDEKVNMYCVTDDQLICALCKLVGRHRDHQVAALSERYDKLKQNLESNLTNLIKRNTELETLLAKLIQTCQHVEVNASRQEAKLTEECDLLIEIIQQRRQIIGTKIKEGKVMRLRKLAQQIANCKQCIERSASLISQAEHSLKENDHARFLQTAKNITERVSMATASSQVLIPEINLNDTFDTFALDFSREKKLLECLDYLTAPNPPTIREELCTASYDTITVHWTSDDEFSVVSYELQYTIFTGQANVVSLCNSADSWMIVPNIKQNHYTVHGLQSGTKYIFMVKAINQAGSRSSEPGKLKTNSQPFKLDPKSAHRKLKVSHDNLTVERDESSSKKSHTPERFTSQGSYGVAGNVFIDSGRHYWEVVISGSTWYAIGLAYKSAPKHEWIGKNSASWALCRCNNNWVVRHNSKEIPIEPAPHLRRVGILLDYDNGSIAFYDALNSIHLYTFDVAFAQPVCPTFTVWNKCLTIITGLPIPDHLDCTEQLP
B2: DCC-interacting protein 13-beta (Homo sapiens), Q8NEU8 (parent)
chain: MPAVDKLLLEEALQDSPQTRSLLSVFEEDAGTLTDYTNQLLQAMQRVYGAQNEMCLATQQLSKQLLAYEKQNFALGKGDEEVISTLHYFSKVVDELNLLHTELAKQLADTMVLPIIQFREKDLTEVSTLKDLFGLASNEHDLSMAKYSRLPKKKENEKVKTEVGKEVAAARRKQHLSSLQYYCALNALQYRKQMAMMEPMIGFAHGQINFFKKGAEMFSKRMDSFLSSVADMVQSIQVELEAEAEKMRVSQQELLSVDESVYTPDSDVAAPQINRNLIQKAGYLNLRNKTGLVTTTWERLYFFTQGGNLMCQPRGAVAGGLIQDLDNCSVMAVDCEDRRYCFQITTPNGKSGIILQAESRKENEEWICAINNISRQIYLTDNPEAVAIKLNQTALQAVTPITSFGKKQESSCPSQNLKNSEMENENDKIVPKATASLPEAEELIAPGTPIQFDIVLPATEFLDQNRGSRRTNPFGETEDESFPEAEDSLLQQMFIVRFLGSMAVKTDSTTEVIYEAMRQVLAARAIHNIFRMTESHLMVTSQSLRLIDPQTQVSRANFELTSVTQFAAHQENKRLVGFVIRVPESTGEESLSTYIFESNSEGEKICYAINLGKEIIEVQKDPEALAQLMLSIPLTNDGKYVLLNDQPDDDDGNPNEHRGAESEA
B3: Angiomotin (Homo sapiens), Q4VCS5 (parent)
chain: MRNSEEQPSGGTTVLQRLLQEQLRYGNPSENRSLLAIHQQATGNGPPFPSGSGNPGPQSDVLSPQDHHQQLVAHAARQEPQGQEIQSENLIMEKQLSPRMQNNEELPTYEEAKVQSQYFRGQQHASVGAAFYVTGVTNQKMRTEGRPSVQRLNPGKMHQDEGLRDLKQGHVRSLSERLMQMSLATSGVKAHPPVTSAPLSPPQPNDLYKNPTSSSEFYKAQGPLPNQHSLKGMEHRGPPPEYPFKGMPPQSVVCKPQEPGHFYSEHRLNQPGRTEGQLMRYQHPPEYGAARPAQDISLPLSARNSQPHSPTSSLTSGGSLPLLQSPPSTRLSPARHPLVPNQGDHSAHLPRPQQHFLPNQAHQGDHYRLSQPGLSQQQQQQQQQHHHHHHHQQQQQQQPQQQPGEAYSAMPRAQPSSASYQPVPADPFAIVSRAQQMVEILSDENRNLRQELEGCYEKVARLQKVETEIQRVSEAYENLVKSSSKREALEKAMRNKLEGEIRRMHDFNRDLRERLETANKQLAEKEYEGSEDTRKTISQLFAKNKESQREKEKLEAELATARSTNEDQRRHIEIRDQALSNAQAKVVKLEEELKKKQVYVDKVEKMQQALVQLQAACEKREQLEHRLRTRLERELESLRIQQRQGNCQPTNVSEYNAAALMELLREKEERILALEADMTKWEQKYLEENVMRHFALDAAATVAAQRDTTVISHSPNTSYDTALEARIQKEEEEILMANKRCLDMEGRIKTLHAQIIEKDAMIKVLQQRSRKEPSKTEQLSCMRPAKSLMSISNAGSGLLSHSSTLTGSPIMEEKRDDKSWKGSLGILLGGDYRAEYVPSTPSPVPPSTPLLSAHSKTGSRDCSTQTERGTESNKTAAVAPISVPAPVAAAATAAAITATAATITTTMVAAAPVAVAAAAAPAAAAAPSPATAAATAAAVSPAAAGQIPAAASVASAAAVAPSAAAAAAVQVAPAAPAPVPAPALVPVPAPAAAQASAPAQTQAPTSAPAVAPTPAPTPTPAVAQAEVPASPATGPGPHRLSIPSLTCNPDKTDGPVFHSNTLERKTPIQILGQEPDAEMVEYLI
partner: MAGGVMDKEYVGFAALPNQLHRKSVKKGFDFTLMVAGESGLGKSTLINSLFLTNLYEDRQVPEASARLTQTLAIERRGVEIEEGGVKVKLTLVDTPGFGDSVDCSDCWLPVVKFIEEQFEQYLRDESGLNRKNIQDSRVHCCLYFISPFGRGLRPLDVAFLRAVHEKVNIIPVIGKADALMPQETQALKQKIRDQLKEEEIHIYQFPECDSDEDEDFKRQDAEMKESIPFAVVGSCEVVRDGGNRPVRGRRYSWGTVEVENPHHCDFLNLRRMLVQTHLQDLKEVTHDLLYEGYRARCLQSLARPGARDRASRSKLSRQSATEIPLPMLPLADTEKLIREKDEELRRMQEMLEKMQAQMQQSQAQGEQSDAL
B4: DNA topoisomerase 3-beta-1 (Homo sapiens), O95985 (parent)
chain: MKTVLMVAEKPSLAQSIAKILSRGSLSSHKGLNGACSVHEYTGTFAGQPVRFKMTSVCGHVMTLDFLGKYNKWDKVDPAELFSQAPTEKKEANPKLNMVKFLQVEGRGCDYIVLWLDCDKEGENICFEVLDAVLPVMNKAHGGEKTVFRARFSSITDTDICNAMACLGEPDHNEALSVDARQELDLRIGCAFTRFQTKYFQGKYGDLDSSLISFGPCQTPTLGFCVERHDKIQSFKPETYWVLQAKVNTDKDRSLLLDWDRVRVFDREIAQMFLNMTKLEKEAQVEATSRKEKAKQRPLALNTVEMLRVASSSLGMGPQHAMQTAERLYTQGYISYPRTETTHYPENFDLKGSLRQQANHPYWADTVKRLLAEGINRPRKGHDAGDHPPITPMKSATEAELGGDAWRLYEYITRHFIATVSHDCKYLQSTISFRIGPELFTCSGKTVLSPGFTEVMPWQSVPLEESLPTCQRGDAFPVGEVKMLEKQTNPPDYLTEAELITLMEKHGIGTDASIPVHINNICQRNYVTVESGRRLKPTNLGIVLVHGYYKIDAELVLPTIRSAVEKQLNLIAQGKADYRQVLGHTLDVFKRKFHYFVDSIAGMDELMEVSFSPLAATGKPLSRCGKCHRFMKYIQAKPSRLHCSHCDETYTLPQNGTIKLYKELRCPLDDFELVLWSSGSRGKSYPLCPYCYNHPPFRDMKKGMGCNECTHPSCQHSLSMLGIGQCVECESGVLVLDPTSGPKWKVACNKCNVVAHCFENAHRVRVSADTCSVCEAALLDVDFNKAKSPLPGDETQHMGCVFCDPVFQELVELKHAASCHPMHRGGPGRRQGRGRGRARRPPGKPNPRRPKDKMSALAAYFV
B5: Isoform 1 of Myotubularin-related protein 9 (Homo sapiens), Q96QG7-1 (parent)
chain: MEFAELIKTPRVDNVVLHRPFYPAVEGTLCLTGHHLILSSRQDNTEELWLLHSNIDAIDKRFVGSLGTIIIKCKDFRIIQLDIPGMEECLNIASSIEALSTLDSITLMYPFFYRPMFEVIEDGWHSFLPEQEFELYSSATSEWRLSYVNKEFAVCPSYPPIVTVPKSIDDEALRKVATFRHGGRFPVLSYYHKKNGMVIMRSGQPLTGTNGRRCKEDEKLINATLRAGKRGYIIDTRSLNVAQQTRAKGGGFEQEAHYPQWRRIHKSIERYHILQESLIKLVEACNDQTHNMDRWLSKLEASNWLTHIKEILTTACLAAQCIDREGASILIHGTEGTDSTLQVTSLAQIILEPRSRTIRGFEALIEREWLQAGHPFQQRCAQSAYCNTKQKWEAPVFLLFLDCVWQILRQFPCSFEFNENFLIMLFEHAYASQFGTFLGNNESERCKLKLQQKTMSLWSWVNQPSELSKFTNPLFEANNLVIWPSVAPQSLPLWEGIFLRWNRSSKYLDEAYEEMVNIIEYNKELQAKVNILRRQLAELETEDGMQESP
partner: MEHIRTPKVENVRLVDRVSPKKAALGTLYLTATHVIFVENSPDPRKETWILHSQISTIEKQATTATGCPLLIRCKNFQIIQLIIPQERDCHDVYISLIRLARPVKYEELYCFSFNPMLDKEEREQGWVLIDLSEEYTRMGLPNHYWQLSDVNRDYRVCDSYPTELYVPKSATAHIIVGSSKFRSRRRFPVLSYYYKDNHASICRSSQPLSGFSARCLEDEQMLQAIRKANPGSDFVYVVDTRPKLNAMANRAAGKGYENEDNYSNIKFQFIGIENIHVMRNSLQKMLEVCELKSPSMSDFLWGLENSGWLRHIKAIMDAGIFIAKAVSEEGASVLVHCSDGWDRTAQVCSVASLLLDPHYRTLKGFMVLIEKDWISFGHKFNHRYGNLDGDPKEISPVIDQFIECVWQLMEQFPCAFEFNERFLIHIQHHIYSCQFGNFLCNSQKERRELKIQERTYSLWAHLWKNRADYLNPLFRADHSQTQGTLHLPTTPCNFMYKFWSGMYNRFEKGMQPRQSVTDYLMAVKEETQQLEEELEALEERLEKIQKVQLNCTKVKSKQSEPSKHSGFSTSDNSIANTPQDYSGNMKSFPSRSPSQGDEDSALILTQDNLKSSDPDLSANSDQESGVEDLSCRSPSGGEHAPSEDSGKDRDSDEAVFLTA
B6: Ensconsin (Homo sapiens), Q14244 (parent)
chain: MAELGAGGDGHRGGDGAVRSETAPDSYKVQDKKNASSRPASAISGQNNNHSGNKPDPPPVLRVDDRQRLARERREEREKQLAAREIVWLEREERARQHYEKHLEERKKRLEEQRQKEERRRAAVEEKRRQRLEEDKERHEAVVRRTMERSQKPKQKHNRWSWGGSLHGSPSIHSADPDRRSVSTMNLSKYVDPVISKRLSSSSATLLNSPDRARRLQLSPWESSVVNRLLTPTHSFLARSKSTAALSGEAASCSPIIMPYKAAHSRNSMDRPKLFVTPPEGSSRRRIIHGTASYKKERERENVLFLTSGTRRAVSPSNPKARQPARSRLWLPSKSLPHLPGTPRPTSSLPPGSVKAAPAQVRPPSPGNIRPVKREVKVEPEKKDPEKEPQKVANEPSLKGRAPLVKVEEATVEERTPAEPEVGPAAPAMAPAPASAPAPASAPAPAPVPTPAMVSAPSSTVNASASVKTSAGTTDPEEATRLLAEKRRLAREQREKEERERREQEELERQKREELAQRVAEERTTRREEESRRLEAEQAREKEEQLQRQAEERALREREEAERAQRQKEEEARVREEAERVRQEREKHFQREEQERLERKKRLEEIMKRTRRTEATDKKTSDQRNGDIAKGALTGGTEVSALPCTTNAPGNGKPVGSPHVVTSHQSKVTVESTPDLEKQPNENGVSVQNENFEEIINLPIGSKPSRLDVTNSESPEIPLNPILAFDDEGTLGPLPQVDGVQTQQTAEVI

Variants of: B1
Conditions: with tri18_human MID1, O15344

| effect of a mutation on the interaction | Variant |
| --- | --- |
| with no effect | R449Q |
| with no effect | I340V |

Variants of: B2
Conditions: with cradd_human CRADD

| effect of a mutation on the interaction | Variant |
| --- | --- |
| with no effect | H205R |

Variants of: B2
Conditions: with suv92_human SUV39H2, Q9H5I1
Chain of suv92_human SUV39H2, Q9H5I1 (Q9H5I1 whole entry): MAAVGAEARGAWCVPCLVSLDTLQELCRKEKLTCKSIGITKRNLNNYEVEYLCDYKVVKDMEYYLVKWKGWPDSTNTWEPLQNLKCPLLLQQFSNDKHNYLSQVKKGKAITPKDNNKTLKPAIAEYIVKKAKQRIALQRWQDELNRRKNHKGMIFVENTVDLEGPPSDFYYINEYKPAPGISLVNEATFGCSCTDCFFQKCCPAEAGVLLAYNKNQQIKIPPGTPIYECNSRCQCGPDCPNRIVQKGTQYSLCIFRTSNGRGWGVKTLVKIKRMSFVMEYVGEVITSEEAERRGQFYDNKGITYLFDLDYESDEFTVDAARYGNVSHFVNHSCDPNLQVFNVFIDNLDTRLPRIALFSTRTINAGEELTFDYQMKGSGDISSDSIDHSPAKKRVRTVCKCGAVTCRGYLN

| effect of a mutation on the interaction | Variant |
| --- | --- |
| with no effect | H205R |

Variants of: B2
Conditions: with rab5c_human RAB5C

| effect of a mutation on the interaction | Variant |
| --- | --- |
| with no effect | K70R |

Variants of: B3
Conditions: with sept1_human SEPTIN1, Q8WYJ6

| effect of a mutation on the interaction | Variant |
| --- | --- |
| with no effect | T899A |

Variants of: B4
Conditions: with trim1_human MID2, Q9UJV3
Chain of trim1_human MID2, Q9UJV3 (Q9UJV3 whole entry): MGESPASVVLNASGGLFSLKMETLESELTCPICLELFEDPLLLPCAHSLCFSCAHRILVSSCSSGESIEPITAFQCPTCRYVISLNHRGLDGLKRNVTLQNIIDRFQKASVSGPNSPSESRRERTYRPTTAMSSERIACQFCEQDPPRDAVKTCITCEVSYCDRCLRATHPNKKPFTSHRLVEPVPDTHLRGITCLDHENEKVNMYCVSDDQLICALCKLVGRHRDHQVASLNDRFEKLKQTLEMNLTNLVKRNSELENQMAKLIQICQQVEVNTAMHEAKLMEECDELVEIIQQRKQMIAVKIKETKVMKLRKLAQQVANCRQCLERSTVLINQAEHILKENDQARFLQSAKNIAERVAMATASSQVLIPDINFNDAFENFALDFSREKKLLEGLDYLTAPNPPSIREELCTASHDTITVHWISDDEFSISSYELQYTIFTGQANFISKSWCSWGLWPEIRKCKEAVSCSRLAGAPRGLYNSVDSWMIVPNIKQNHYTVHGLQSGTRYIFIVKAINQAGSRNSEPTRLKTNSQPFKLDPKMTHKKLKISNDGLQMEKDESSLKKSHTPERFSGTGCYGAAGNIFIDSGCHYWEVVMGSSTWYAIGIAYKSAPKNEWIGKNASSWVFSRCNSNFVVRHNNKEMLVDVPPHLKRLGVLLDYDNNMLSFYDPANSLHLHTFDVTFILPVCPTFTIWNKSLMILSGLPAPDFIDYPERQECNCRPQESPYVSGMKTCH

| effect of a mutation on the interaction | Variant |
| --- | --- |
| disrupting interaction strength | R267W |

Variants of: B4
Conditions: with tri41_human TRIM41, Q8WV44

| effect of a mutation on the interaction | Variant |
| --- | --- |
| disrupting interaction strength | R267W |

Variants of: B5
Conditions: with mtmr7_human MTMR7, Q9Y216

| effect of a mutation on the interaction | Variant |
| --- | --- |
| with no effect | F127I |

Variants of: B5
Conditions: with mtmr7_human MTMR7, Q9Y216
Remark: another data set of the same source

| effect of a mutation on the interaction | Variant |
| --- | --- |
| with no effect | S126C |

Variants of: B6
Conditions: with ccdb1_human CCNDBP1, O95273
Chain of ccdb1_human CCNDBP1, O95273 (O95273 whole entry): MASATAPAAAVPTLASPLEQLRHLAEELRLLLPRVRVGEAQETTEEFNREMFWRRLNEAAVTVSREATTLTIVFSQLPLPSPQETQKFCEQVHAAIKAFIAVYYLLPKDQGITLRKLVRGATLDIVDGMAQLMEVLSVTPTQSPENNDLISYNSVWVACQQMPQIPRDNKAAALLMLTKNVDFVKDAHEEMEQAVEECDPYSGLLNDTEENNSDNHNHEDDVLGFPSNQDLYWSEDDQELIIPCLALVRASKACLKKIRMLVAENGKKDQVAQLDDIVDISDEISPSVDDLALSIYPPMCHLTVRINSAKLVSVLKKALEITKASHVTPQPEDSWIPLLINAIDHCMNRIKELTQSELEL

| effect of a mutation on the interaction | Variant |
| --- | --- |
| with no effect | M429T |
